Results published in patent US11814435B2, “Therapeutic antibodies and their uses” (PFIZER INC., priority 2015, dated 2023).

T1: hBCMA (human BCMA) (Homo sapiens, UniProt Q02223)
T1 sequence (Q02223 1-184): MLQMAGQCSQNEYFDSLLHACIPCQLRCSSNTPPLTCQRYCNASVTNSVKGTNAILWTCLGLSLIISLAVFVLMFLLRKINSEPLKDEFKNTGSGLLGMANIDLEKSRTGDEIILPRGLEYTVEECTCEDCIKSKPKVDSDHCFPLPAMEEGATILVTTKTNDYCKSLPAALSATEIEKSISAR


Key:
hBCMA (human BCMA) = biological target: T1, hBCMA (human BCMA); assay: Kinetics and affinity of hBCMA/human IgG interactions by SPR (Bio-Rad Proteon XPR36); type: binding; details: huBCMA, 37° C.
Experimental: All experiments were performed on a Bio-Rad Proteon XPR36 surface Plasmon resonance biosensor (Bio-Rad, Hercules, Calif.). An array of anti-BCMA antibodies was prepared using an amine-coupling method on a Bio-Rad GLC Sensor Chip similar to that described in Abdiche, et al., Anal. Biochem. 411, 139-151 (2011). The analysis temperature for the immobilization was 25° C. and the running buffer was HBS-T+(10 mM HEPES, 150 mM NaCl, 0.05% Tween-20, pH 7.4). Channels were activated in the analyte (horizontal) direction by injecting a mixture of 1 mM ECD and 0.25 mM NHS for 3 minutes at a flow rate of 30 μL/min. IgGs were immobilized on the activated spots by injecting them in the ligand (vertical) direction at 20 μg/mL in 10 mM Acetate pH 4.5 buffer for 1.5 minutes at […]. The activated surfaces were blocked by injecting 1M ethanolamine, pH 8.5 in the analyte direction for 3 minutes at 30 μL/min.
The analysis temperature for the hBCMA binding analysis was 37° C. or 25° C. in a running buffer of HBS-T+, supplemented with 1 mg/mL BSA. A kinetic titration method was employed for the interaction analysis as described in Abdiche, et al. The hBCMA (human BCMA) analyte was injected in the analyte direction using a series of injections from low to high concentration. The concentrations used were 0.08 nM, 0.4 nM, 2 nM, 10 nM and 50 nM (a 5-membered series, with a 5-fold dilution factor and top concentration of 50 nM). The association time for a given analyte dilution was two minutes. Immediately after the 50 nM hBCMA injection, dissociation was monitored for 2 hours. Prior to the hBCMA analyte injections, buffer was injected 5 times using the same association and dissociation times at the hBCMA analyte cycles to prepare a buffer blank sensorgram for double-referencing purposes (double referencing as described in Myszka, J. Mol. Recognit. 12, 279-284 (1999).
The sensorgrams were double-referenced and fit to a 1:1 Langmuir with mass transport kinetic titration model in BIAevaluation Software version 4.1.1 (GE Lifesciences, Piscataway, N.J.). The sensorgrams and fits are shown in FIG. 1, and the kinetics and affinity parameters for various anti-BCMA antibodies of the present invention are shown in Tables 6A-6C.

cyBCMA = assay: Kinetics and affinity of cyBCMA/human IgG interactions by SPR (Bio-Rad Proteon XPR36); type: binding, cynomolgus; details: 37° C.

| ka (1/Ms) huBCMA @ 37° C. (hBCMA (human BCMA)) [M⁻¹ s⁻¹] | kd (1/s) huBCMA @37° C. (hBCMA (human BCMA)) [s⁻¹] | kd (1/s) cyBCMA @37° C. (cyBCMA) [s⁻¹] | Molecule | ka (1/Ms) cyBCMA @ 37° C. (cyBCMA) [M⁻¹ s⁻¹] |
| --- | --- | --- | --- | --- |
| 3.15e+06 | 0.00118 | 0.0054 | L3.PY/H3.YA: anti-BCMA antibody (antibody, V domains shown) VH: EVQLLESGGGLVQPGGSLRLSCAASGFTFGSYAMTWVRQAPGKGLEWVSAISGSGGNTFYADSVKGRFTISRDNSKNTLYLQMNSLRAEDTAVYYCARVSPIYAGMDYWGQGTLVTVSS VL: EIVLTQSPGTLSLSPGERATLSCRASQSVSSSYLAWYQQKPGQAPRLLIYGASSRATGIPDRFSGSGSGTDFTLTISRLEPEDFAVYYCQHYPYPPSFTFGQGTKVEIK | 2.87e+06 |
| 3.07e+06 | 0.00905 | 0.00998 | L3.PY/L1.PS/H3.YA: anti-BCMA antibody (antibody, V domains shown) VH: EVQLLESGGGLVQPGGSLRLSCAASGFTFGSYAMTWVRQAPGKGLEWVSAISGSGGNTFYADSVKGRFTISRDNSKNTLYLQMNSLRAEDTAVYYCARVSPIYAGMDYWGQGTLVTVSS VL: EIVLTQSPGTLSLSPGERATLSCRASQSVSSSYPSWYQQKPGQAPRLLIYGASSRATGIPDRFSGSGSGTDFTLTISRLEPEDFAVYYCQHYPYPPSFTFGQGTKVEIK | 1.77e+06 |
| 3.3e+06 | 0.0106 | 0.00269 | L3.PY/L1.PS/H2.HA: anti-BCMA antibody (antibody, V domains shown) VH: EVQLLESGGGLVQPGGSLRLSCAASGFTFGSYAMTWVRQAPGKGLEWVSAISHAGGNTFYADSVKGRFTISRDNSKNTLYLQMNSLRAEDTAVYYCARVSPIASGMDYWGQGTLVTVSS VL: EIVLTQSPGTLSLSPGERATLSCRASQSVSSSYPSWYQQKPGQAPRLLIYGASSRATGIPDRFSGSGSGTDFTLTISRLEPEDFAVYYCQHYPYPPSFTFGQGTKVEIK | 1.45e+06 |
| 3.29e+06 | 0.00139 | 0.00504 | L3.PY/H3.AE: anti-BCMA antibody (antibody, V domains shown) VH: EVQLLESGGGLVQPGGSLRLSCAASGFTFGSYAMTWVRQAPGKGLEWVSAISGSGGNTFYADSVKGRFTISRDNSKNTLYLQMNSLRAEDTAVYYCARVSPIAAEMDYWGQGTLVTVSS VL: EIVLTQSPGTLSLSPGERATLSCRASQSVSSSYLAWYQQKPGQAPRLLIYGASSRATGIPDRFSGSGSGTDFTLTISRLEPEDFAVYYCQHYPYPPSFTFGQGTKVEIK | 2.82e+06 |
| 3.14e+06 | 0.00146 | 0.00413 | L3.PY/L1.PS/H3.AE: anti-BCMA antibody (antibody, V domains shown) VH: EVQLLESGGGLVQPGGSLRLSCAASGFTFGSYAMTWVRQAPGKGLEWVSAISGSGGNTFYADSVKGRFTISRDNSKNTLYLQMNSLRAEDTAVYYCARVSPIAAEMDYWGQGTLVTVSS VL: EIVLTQSPGTLSLSPGERATLSCRASQSVSSSYPSWYQQKPGQAPRLLIYGASSRATGIPDRFSGSGSGTDFTLTISRLEPEDFAVYYCQHYPYPPSFTFGQGTKVEIK | 2.46e+06 |
| 3.25e+06 | 0.00246 | 0.00552 | L3.PY/L1.PS/H3.TAQ: anti-BCMA antibody (antibody, V domains shown) VH: EVQLLESGGGLVQPGGSLRLSCAASGFTFGSYAMTWVRQAPGKGLEWVSAISGSGGNTFYADSVKGRFTISRDNSKNTLYLQMNSLRAEDTAVYYCTRVSPIAAQMDYWGQGTLVTVSS VL: EIVLTQSPGTLSLSPGERATLSCRASQSVSSSYPSWYQQKPGQAPRLLIYGASSRATGIPDRFSGSGSGTDFTLTISRLEPEDFAVYYCQHYPYPPSFTFGQGTKVEIK | 2.58e+06 |

Second part, the molecule before the results:

| Molecule | ka (1/Ms) huBCMA @ 37° C. (hBCMA (human BCMA)) [M⁻¹ s⁻¹] | kd (1/s) huBCMA @37° C. (hBCMA (human BCMA)) [s⁻¹] | kd (1/s) cyBCMA @37° C. (cyBCMA) [s⁻¹] | ka (1/Ms) cyBCMA @ 37° C. (cyBCMA) [M⁻¹ s⁻¹] |
| --- | --- | --- | --- | --- |
| L3.PY/L1.PS/H2.QR: anti-BCMA antibody (antibody, V domains shown) VH: EVQLLESGGGLVQPGGSLRLSCAASGFTFGSYAMTWVRQAPGKGLEWVSAISGSGGNTFYADQRKGRFTISRDNSKNTLYLQMNSLRAEDTAVYYCARVSPIASGMDYWGQGTLVTVSS VL: EIVLTQSPGTLSLSPGERATLSCRASQSVSSSYPSWYQQKPGQAPRLLIYGASSRATGIPDRFSGSGSGTDFTLTISRLEPEDFAVYYCQHYPYPPSFTFGQGTKVEIK | 3.97e+06 | 0.103 | 0.00067 | 525000 |
| L3.PY/L1.AH/H2.QR: anti-BCMA antibody (antibody, V domains shown) VH: EVQLLESGGGLVQPGGSLRLSCAASGFTFGSYAMTWVRQAPGKGLEWVSAISGSGGNTFYADQRKGRFTISRDNSKNTLYLQMNSLRAEDTAVYYCARVSPIASGMDYWGQGTLVTVSS VL: EIVLTQSPGTLSLSPGERATLSCRASQSVSAHYLAWYQQKPGQAPRLLIYGASSRATGIPDRFSGSGSGTDFTLTISRLEPEDFAVYYCQHYPYPPSFTFGQGTKVEIK | 3.13e+06 | 0.00181 | 0.00491 | 2.2e+06 |
| L3.PY/L1.PS/H2.DY: anti-BCMA antibody (antibody, V domains shown) VH: EVQLLESGGGLVQPGGSLRLSCAASGFTFGSYAMTWVRQAPGKGLEWVSAIDYSGGNTFYADSVKGRFTISRDNSKNTLYLQMNSLRAEDTAVYYCARVSPIASGMDYWGQGTLVTVSS VL: EIVLTQSPGTLSLSPGERATLSCRASQSVSSSYPSWYQQKPGQAPRLLIYGASSRATGIPDRFSGSGSGTDFTLTISRLEPEDFAVYYCQHYPYPPSFTFGQGTKVEIK | 3.22e+06 | 0.00361 | 0.00378 | 1.9e+06 |
| L3.PY/L1.PS/H2.QL: anti-BCMA antibody (antibody, V domains shown) VH: EVQLLESGGGLVQPGGSLRLSCAASGFTFGSYAMTWVRQAPGKGLEWVSAISGSGGNTFYADQLKGRFTISRDNSKNTLYLQMNSLRAEDTAVYYCARVSPIASGMDYWGQGTLVTVSS VL: EIVLTQSPGTLSLSPGERATLSCRASQSVSSSYPSWYQQKPGQAPRLLIYGASSRATGIPDRFSGSGSGTDFTLTISRLEPEDFAVYYCQHYPYPPSFTFGQGTKVEIK | 1.52e+07 | 0.314 | 0.000636 | 657000 |
| L3.PY/L1.PS/H2.YQ: anti-BCMA antibody (antibody, V domains shown) VH: EVQLLESGGGLVQPGGSLRLSCAASGFTFGSYAMTWVRQAPGKGLEWVSAISYQGGNTFYADSVKGRFTISRDNSKNTLYLQMNSLRAEDTAVYYCARVSPIASGMDYWGQGTLVTVSS VL: EIVLTQSPGTLSLSPGERATLSCRASQSVSSSYPSWYQQKPGQAPRLLIYGASSRATGIPDRFSGSGSGTDFTLTISRLEPEDFAVYYCQHYPYPPSFTFGQGTKVEIK | 3.35e+06 | 0.0043 | 0.00374 | 2e+06 |
| L3.PY/L1.PS/H2.LT: anti-BCMA antibody (antibody, V domains shown) VH: EVQLLESGGGLVQPGGSLRLSCAASGFTFGSYAMTWVRQAPGKGLEWVSAISLTGGNTFYADSVKGRFTISRDNSKNTLYLQMNSLRAEDTAVYYCARVSPIASGMDYWGQGTLVTVSS VL: EIVLTQSPGTLSLSPGERATLSCRASQSVSSSYPSWYQQKPGQAPRLLIYGASSRATGIPDRFSGSGSGTDFTLTISRLEPEDFAVYYCQHYPYPPSFTFGQGTKVEIK | 3.4e+06 | 0.00465 | 0.00411 | 2.17e+06 |
